Laboratory results taken from the supplement of paper PMC6757056.
± gives the standard deviation of the averaged measurements.

B1: library; a variant is named by its letters at N, in order (parent)
chain: GCUGUCACCGGUGCUUGGUACGUUAUAUUCAGCCGGUCUGAUGAGUCUNNNNNNAGACGAAACAGC

Tests used:
[1] = variants of: B1; assay: FACS-Seq fitted mean relative fluorescence mCherry/BFP without ligand (log10 relative fluorescence); HEK293T overexpressing SLC46A1; higher = higher reporter protein expression; settings: without (6R,S)-folinic acid; ligand present: no
How it was run: (§1)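 Reporter cells were enriched HEK293T libraries transduced by lentivirus with mCherry behind the ribozyme switch and with an EF1α-BFP marker. Following 48 h with or without ligand, they were sorted into 6 mCherry/BFP bins, and bin genomic DNA was PCR-amplified, barcoded and MiSeq-sequenced. Fluorescence was computed as the fitted normal mean of the bin counts. The fit used log10(mCherry/BFP), with scaling to five spiked-in control ribozymes.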

[2] = variants of: B1; assay: normalized RNA/DNA level without ligand (relative to sTRSVctl = 100) (log10 (% of sTRSVctl)); HEK293T overexpressing SLC46A1; higher = less ribozyme self-cleavage, higher mRNA level; settings: without (6R,S)-folinic acid; ligand present: no
Procedure: (§2)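 Hammerhead (sTRSV) ribozyme switch libraries with a ligand aptamer grafted on stem I and a randomized N4-6 loop II, cloned into the 3' UTR of mCherry and transiently transfected into HEK293T cells; RNA-Seq 72 h post transfection with ligand added 1 h before transfection; RNA read count / plasmid DNA read count normalized to the non-cleaving sTRSVctl (x100), log10; sequences with >100 DNA reads. FACS-Seq: lentiviral library sorted into 6 bins after 48 h ligand, log-normal fit mean of mCherry/BFP scaled to controls. Printed sequences are partial switch sequences.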

[3] = variants of: B1; assay: FACS-Seq fitted mean relative fluorescence mCherry/BFP with ligand (log10 relative fluorescence); HEK293T overexpressing SLC46A1; ligand concentration (+) FACS-Seq: 6 mM; higher = higher reporter protein expression; settings: with (6R,S)-folinic acid; ligand present: yes
How it was run: as §1

[4] = variants of: B1; assay: normalized RNA/DNA level with ligand (relative to sTRSVctl = 100) (log10 (% of sTRSVctl)); HEK293T overexpressing SLC46A1; ligand concentration (+) RNA-Seq: 6 mM; higher = less ribozyme self-cleavage, higher mRNA level; settings: with (6R,S)-folinic acid; ligand present: yes
Procedure: as §2

Row | Variant | FACS-Seq fitted mean (log10) [1] | normalized RNA/DNA level without ligand (log10) [2] | FACS-Seq fitted mean (log10) [3] | normalized RNA/DNA level with ligand (log10) [4]
1 | UCAUUG | 0.0972 ± 0.14 | 1.876 ± 0.0017 | 0.304 ± 0.23 | 2 ± 0.05
2 | GAGAGU | 0.347 ± 0.02 | 1.982 ± 0.013 | 0.471 ± 0.28 | 2.014 ± 0.0034
3 | GUGUAA | 0.21 ± 0.21 | 1.957 ± 0.0042 | 0.383 ± 0.18 | 2 ± 0.041
4 | GCCAAA | 0.458 ± 0.071 | 2.02 ± 0.017 | 0.495 ± 0.12 | 2.029 ± 0.0061
5 | AAUGAG | 0.455 ± 0.051 | 1.778 ± 0.0047 | 0.7222 ± 0.0013 | 1.97 ± 0.021
6 | UUGGAA | 0.241 ± 0.03 | 1.9 ± 0.025 | 0.528 ± 0.17 | 1.99 ± 0.029
7 | ACGGAU | 0.261 ± 0.068 | 1.936 ± 0.017 | 0.344 ± 0.042 | 2.01 ± 0.037
8 | GAUAAC | 0.223 ± 0.036 | 1.972 ± 0.012 | 0.5 ± 0.022 | 2.01 ± 0.014
9 | GGAGAA | 0.29 ± 0.13 | 1.961 ± 0.013 | 0.201 ± 0.0069 | 2.01 ± 0.022
10 | AUCUUG | 0.284 ± 0.023 | 1.952 ± 0.0043 | 0.288 ± 0.16 | 2.01 ± 0.028
11 | AGGUUU | 0.323 ± 0.15 | 2.003 ± 0.012 | 0.561 ± 0.075 | 2.0283 ± 0.00022
12 | UUUGAU | 0.135 ± 0.022 | 1.9541 ± 0.0016 | 0.206 ± 0.34 | 1.99 ± 0.065
13 | GGAUUC | 0.835 ± 0.03 | 2.045 ± 0.0076 | 0.746 ± 0.041 | 2.021 ± 0.016
14 | GUUCAA | 0.497 ± 0.083 | 1.98 ± 0.023 | 0.591 ± 0.17 | 1.98 ± 0.023
15 | GUUCAC | 0.0291 ± 0.011 | 2.041 ± 0.016 | -0.0744 ± 0.017 | 2.032 ± 0.014
16 | UGUGUG | 0.164 ± 0.26 | 1.591 ± 0.003 | 0.393 ± 0.24 | 1.94 ± 0.062
17 | GUCAGG | 0.338 ± 0.065 | 1.938 ± 0.015 | 0.29 ± 0.076 | 1.974 ± 0.018
18 | GUCUUG | 0.0388 ± 0.018 | 1.974 ± 0.0081 | 0.151 ± 0.32 | 2.05 ± 0.049

Row | Variant | FACS-Seq fitted mean (log10) [1] | normalized RNA/DNA level without ligand (log10) [2] | FACS-Seq fitted mean (log10) [3] | normalized RNA/DNA level with ligand (log10) [4]
19 | CCCCGA | -0.3459 ± 0.0019 | 2.028 ± 0.0046 | -0.64 ± 0.16 | 2.02 ± 0.038
20 | CCUAAG | 0.536 ± 0.044 | 1.9074 ± 0.0005 | 0.332 ± 0.0073 | 2.002 ± 0.018
21 | CGGCAU | 0.32 ± 0.03 | 2.011 ± 0.0083 | 0.52 ± 0.17 | 2.019 ± 0.02
22 | UCGAUA | 0.597 ± 0.085 | 1.987 ± 0.0049 | 0.69 ± 0.34 | 2.02 ± 0.026
23 | UCCGGG | 0.446 ± 0.031 | 2.02 ± 0.026 | 0.62 ± 0.13 | 2.05 ± 0.031
24 | UACAGG | 0.254 ± 0.021 | 1.661 ± 0.0093 | 0.489 ± 0.051 | 1.96 ± 0.033
25 | GACUAU | 0.375 ± 0.083 | 1.9961 ± 0.00078 | 0.557 ± 0.24 | 2.002 ± 0.0044
26 | CAGAAA | 0.257 ± 0.038 | 1.944 ± 0.0067 | 0.441 ± 0.2 | 1.97 ± 0.043
27 | UAUAGG | 0.0298 ± 0.024 | 1.58 ± 0.029 | 0.514 ± 0.24 | 1.92 ± 0.02
28 | UAUACC | 0.255 ± 0.057 | 2.011 ± 0.0036 | 0.126 ± 0.21 | 2.018 ± 0.014
29 | CGCUGC | 0.0944 ± 0.13 | 2.091 ± 0.012 | -0.0623 ± 0.071 | 2.0496 ± 0.0017
30 | AGAUGA | 0.308 ± 0.011 | 1.9723 ± 0.0012 | 0.112 ± 0.046 | 2.02 ± 0.038
31 | AAGUAA | 0.225 ± 0.044 | 1.94 ± 0.021 | 0.18 ± 0.26 | 2 ± 0.043
32 | ACCCGA | 0.249 ± 0.044 | 2.017 ± 0.016 | 0.537 ± 0.076 | 2.03 ± 0.044
33 | UGUGCG | 0.0533 ± 0.02 | 1.657 ± 0.011 | 0.442 ± 0.14 | 1.96 ± 0.05
34 | UAGCGG | -0.127 ± 0.027 | 1.671 ± 0.0027 | 0.217 ± 0.06 | 1.96 ± 0.023
35 | CUUGAU | 0.145 ± 0.1 | 1.97 ± 0.018 | 0.602 ± 0.33 | 2.008 ± 0.018
36 | CGUUAA | 0.362 ± 0.031 | 1.97 ± 0.016 | 0.486 ± 0.18 | 1.98 ± 0.025
